This passage reports activity (% of wild-type transposon) and binding signal results from patent US20190169638.

Series [1] deals with Sleeping Beauty transposase SB10 (synthetic (Sleeping Beauty, reconstructed salmonid Tc1/mariner)?). In words: cell_activity. Conditions: transposition in HeLa.
For series [2], the system named is Sleeping Beauty transposase N123 (PAIRED DNA-binding domain, PAI+RED) (synthetic (Sleeping Beauty, reconstructed salmonid Tc1/mariner)?). Description: EMSA. Conditions: reference for CAST sequences.

As to “GTACATACACGCGCACTTCTGACCCACTGG (double strand) [pT/neo transposon with CAST-5/wt hybrid inner DRs]”, in series [1], the activity (% of wild-type transposon) stood at 130.
The same measure, in the same setting: the result for “GTGACGACCCCAAGTGTACATACACGCGCC (double strand) [pT/neo transposon with 12DRs replaced by CAST-5]” reads 65; that for “GTGACGACCCCAAGTGTACATACACGCGCC (double strand) [pT/neo transposon with 14DRs replaced by CAST-5]”, 3.
Consider “ACATACACTTAAGTGTATGTAAACTTCCGACTTCAACTTGG / GACTCCAAGTTGAAGTCGGAAGTTTACATACACTTAAGTGTATGT [14DR (outer DR) probe]”, for which the binding signal in series [2] was determined as 1 fold.
As to “GTGACGACCCCAAGTGTACATACACGCGCC (double strand) [pT/neo transposon with all four DRs CAST-5]”, the activity (% of wild-type transposon) in series [1] came to 2.2.
